Assay results reported in IntAct's records for PubMed 35512704.

B1: Speckle-type POZ protein (Homo sapiens), O43791 (parent)
chain: MSRVPSPPPPAEMSSGPVAESWCYTQIKVVKFSYMWTINNFSFCREEMGEVIKSSTFSSGANDKLKWCLRVNPKGLDEESKDYLSLYLLLVSCPKSEVRAKFKFSILNAKGEETKAMESQRAYRFVQGKDWGFKKFIRRDFLLDEANGLLPDDKLTLFCEVSVVQDSVNISGQNTMNMVKVPECRLADELGGLWENSRFTDCCLCVAGQEFQAHKAILAARSPVFSAMFEHEMEESKKNRVEINDVEPEVFKEMMCFIYTGKAPNLDKMADDLLAAADKYALERLKVMCEDALCSNLSVENAAEILILADLHSADQLKTQAVDFINYHASDVLETSGWKSMVVSHPHLVAEAYRSLASAQCPFLGPPRKRLKQS
partner: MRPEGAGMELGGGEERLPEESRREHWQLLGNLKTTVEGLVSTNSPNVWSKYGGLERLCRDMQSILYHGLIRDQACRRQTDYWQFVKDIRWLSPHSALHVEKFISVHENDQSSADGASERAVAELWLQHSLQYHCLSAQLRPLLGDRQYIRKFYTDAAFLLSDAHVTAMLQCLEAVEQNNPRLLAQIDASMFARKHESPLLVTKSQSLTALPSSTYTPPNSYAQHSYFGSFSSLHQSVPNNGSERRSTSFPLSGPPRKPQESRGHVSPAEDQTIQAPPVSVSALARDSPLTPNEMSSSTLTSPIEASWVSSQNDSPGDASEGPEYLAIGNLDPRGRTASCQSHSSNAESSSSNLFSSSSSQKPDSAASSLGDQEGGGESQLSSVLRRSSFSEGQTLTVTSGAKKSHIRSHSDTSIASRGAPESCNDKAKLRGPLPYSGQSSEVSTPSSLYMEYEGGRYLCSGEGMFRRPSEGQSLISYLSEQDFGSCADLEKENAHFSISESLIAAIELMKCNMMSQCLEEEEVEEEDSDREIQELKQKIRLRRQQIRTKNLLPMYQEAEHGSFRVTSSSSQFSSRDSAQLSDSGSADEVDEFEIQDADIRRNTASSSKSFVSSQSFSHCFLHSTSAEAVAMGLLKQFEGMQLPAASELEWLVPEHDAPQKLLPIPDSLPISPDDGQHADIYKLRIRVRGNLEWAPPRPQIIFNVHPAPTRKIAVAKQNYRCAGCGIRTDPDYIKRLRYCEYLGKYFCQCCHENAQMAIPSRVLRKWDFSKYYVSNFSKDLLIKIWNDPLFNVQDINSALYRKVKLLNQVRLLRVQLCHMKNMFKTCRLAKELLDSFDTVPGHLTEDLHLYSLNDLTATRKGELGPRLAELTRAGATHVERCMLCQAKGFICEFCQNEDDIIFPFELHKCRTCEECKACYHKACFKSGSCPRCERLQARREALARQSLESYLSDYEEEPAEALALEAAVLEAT
B2: Speckle-type POZ protein (Homo sapiens), O43791 (parent)
chain: B1 chain
partner: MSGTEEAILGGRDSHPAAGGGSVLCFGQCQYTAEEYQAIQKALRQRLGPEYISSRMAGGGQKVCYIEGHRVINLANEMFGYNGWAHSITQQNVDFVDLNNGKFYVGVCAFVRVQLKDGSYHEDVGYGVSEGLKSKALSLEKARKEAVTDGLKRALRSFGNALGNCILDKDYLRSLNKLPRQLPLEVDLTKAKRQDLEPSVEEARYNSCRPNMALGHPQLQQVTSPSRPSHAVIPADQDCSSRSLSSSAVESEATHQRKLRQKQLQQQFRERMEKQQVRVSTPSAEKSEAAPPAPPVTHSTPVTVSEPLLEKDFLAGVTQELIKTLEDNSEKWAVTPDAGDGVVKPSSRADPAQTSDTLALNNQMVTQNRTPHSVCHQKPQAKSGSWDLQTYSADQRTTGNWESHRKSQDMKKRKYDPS
B3: Speckle-type POZ protein (Homo sapiens), O43791 (parent)
chain: B1 chain
partner: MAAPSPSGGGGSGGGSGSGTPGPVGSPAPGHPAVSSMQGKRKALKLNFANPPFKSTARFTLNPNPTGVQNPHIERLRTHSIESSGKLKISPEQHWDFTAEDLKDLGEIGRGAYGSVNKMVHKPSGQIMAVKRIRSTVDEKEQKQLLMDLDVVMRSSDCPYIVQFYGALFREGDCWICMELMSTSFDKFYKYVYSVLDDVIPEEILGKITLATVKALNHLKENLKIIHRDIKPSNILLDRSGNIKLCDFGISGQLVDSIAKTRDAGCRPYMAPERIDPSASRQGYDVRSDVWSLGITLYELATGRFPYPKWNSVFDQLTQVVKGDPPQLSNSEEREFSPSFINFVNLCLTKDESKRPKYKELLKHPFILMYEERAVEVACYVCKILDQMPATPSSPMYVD
B4: Speckle-type POZ protein (Homo sapiens), O43791 (parent)
chain: B1 chain
partner: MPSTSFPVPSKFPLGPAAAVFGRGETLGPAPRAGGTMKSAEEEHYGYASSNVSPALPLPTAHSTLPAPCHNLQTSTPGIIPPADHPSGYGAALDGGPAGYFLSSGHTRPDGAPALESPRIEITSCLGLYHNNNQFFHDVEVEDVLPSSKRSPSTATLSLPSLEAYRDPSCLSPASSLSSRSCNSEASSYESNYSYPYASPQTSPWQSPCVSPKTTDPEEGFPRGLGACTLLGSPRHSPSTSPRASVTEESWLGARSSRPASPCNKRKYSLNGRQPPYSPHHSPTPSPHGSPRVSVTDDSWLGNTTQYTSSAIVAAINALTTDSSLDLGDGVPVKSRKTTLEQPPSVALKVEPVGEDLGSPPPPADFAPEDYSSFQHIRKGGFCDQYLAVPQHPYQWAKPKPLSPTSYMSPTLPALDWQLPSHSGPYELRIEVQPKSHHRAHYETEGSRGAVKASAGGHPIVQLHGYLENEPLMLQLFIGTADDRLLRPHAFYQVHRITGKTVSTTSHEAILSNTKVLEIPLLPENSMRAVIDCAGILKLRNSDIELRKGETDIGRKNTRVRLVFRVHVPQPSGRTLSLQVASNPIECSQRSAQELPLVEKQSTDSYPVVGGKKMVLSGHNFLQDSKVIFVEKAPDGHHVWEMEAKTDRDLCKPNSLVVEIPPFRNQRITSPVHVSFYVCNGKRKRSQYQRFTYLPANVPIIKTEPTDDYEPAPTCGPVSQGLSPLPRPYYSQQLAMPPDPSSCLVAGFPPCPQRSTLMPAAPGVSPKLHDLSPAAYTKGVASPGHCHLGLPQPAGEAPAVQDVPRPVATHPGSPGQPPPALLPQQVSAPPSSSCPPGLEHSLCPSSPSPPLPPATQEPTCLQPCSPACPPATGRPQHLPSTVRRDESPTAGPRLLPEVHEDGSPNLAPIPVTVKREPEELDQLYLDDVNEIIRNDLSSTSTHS
B5: Speckle-type POZ protein (Homo sapiens), O43791 (parent)
chain: B1 chain
partner: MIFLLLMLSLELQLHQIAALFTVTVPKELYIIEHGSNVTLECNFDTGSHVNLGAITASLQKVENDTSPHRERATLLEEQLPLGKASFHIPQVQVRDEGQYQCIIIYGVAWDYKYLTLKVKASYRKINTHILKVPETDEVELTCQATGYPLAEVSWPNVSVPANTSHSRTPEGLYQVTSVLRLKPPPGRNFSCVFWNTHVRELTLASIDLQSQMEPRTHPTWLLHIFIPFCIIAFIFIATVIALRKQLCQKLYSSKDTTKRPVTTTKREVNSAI
B6: Speckle-type POZ protein (Homo sapiens), O43791 (parent)
chain: B1 chain
partner: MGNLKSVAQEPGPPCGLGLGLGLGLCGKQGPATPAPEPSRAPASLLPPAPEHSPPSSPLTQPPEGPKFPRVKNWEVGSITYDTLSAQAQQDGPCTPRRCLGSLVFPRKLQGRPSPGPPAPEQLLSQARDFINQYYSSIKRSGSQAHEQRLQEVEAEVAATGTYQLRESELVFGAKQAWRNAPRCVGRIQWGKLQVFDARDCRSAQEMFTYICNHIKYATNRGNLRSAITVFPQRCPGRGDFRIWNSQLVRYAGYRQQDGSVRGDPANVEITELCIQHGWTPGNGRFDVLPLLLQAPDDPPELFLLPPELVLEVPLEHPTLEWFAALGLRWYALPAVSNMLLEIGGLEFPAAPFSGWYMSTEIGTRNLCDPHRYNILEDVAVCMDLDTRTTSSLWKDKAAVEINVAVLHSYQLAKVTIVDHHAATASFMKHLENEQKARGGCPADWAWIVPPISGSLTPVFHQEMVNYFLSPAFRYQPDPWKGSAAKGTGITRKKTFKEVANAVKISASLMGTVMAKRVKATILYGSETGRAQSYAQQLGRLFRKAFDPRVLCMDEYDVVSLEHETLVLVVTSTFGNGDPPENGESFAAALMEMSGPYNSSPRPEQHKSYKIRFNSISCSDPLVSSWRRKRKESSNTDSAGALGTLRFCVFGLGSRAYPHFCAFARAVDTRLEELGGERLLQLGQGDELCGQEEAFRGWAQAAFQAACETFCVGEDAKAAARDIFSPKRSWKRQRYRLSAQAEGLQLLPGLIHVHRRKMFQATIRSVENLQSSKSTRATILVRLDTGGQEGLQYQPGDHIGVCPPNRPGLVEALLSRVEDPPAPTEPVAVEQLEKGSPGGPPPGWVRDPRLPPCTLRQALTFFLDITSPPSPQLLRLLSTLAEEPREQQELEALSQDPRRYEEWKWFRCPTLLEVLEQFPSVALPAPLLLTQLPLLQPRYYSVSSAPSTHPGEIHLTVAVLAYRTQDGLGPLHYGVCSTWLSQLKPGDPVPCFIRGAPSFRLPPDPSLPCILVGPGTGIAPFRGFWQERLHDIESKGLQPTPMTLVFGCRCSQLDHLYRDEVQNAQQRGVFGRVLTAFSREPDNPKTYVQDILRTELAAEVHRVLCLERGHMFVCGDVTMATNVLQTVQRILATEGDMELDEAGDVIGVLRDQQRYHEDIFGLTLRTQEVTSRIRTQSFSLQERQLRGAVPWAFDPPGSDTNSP
B7: Speckle-type POZ protein (Homo sapiens), O43791 (parent)
chain: B1 chain
partner: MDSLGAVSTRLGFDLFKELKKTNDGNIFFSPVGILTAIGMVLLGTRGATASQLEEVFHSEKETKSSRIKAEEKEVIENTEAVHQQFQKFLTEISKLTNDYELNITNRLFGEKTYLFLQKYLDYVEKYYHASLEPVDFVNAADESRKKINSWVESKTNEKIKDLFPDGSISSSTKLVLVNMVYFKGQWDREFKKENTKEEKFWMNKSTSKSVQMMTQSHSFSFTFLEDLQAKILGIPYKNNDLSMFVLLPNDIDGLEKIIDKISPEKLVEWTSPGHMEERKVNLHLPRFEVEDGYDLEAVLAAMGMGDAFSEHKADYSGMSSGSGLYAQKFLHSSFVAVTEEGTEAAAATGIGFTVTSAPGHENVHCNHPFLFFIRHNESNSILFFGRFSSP

Variants of: B1
Settings: with rubic_human RUBCN

Row | Variant | effect of a mutation on the interaction
1 | F133V | with no effect

Variants of: B1
Settings: with rubic_human RUBCN
Remark: another data set of the same source

Row | Variant | effect of a mutation on the interaction
2 | F133L | with no effect

Variants of: B2
Settings: with rad52_human RAD52, P43351

Row | Variant | effect of a mutation on the interaction
3 | F102C | with no effect

Variants of: B2
Settings: with rad52_human RAD52, P43351
Remark: another data set of the same source

Row | Variant | effect of a mutation on the interaction
4 | Y87C | with no effect

Variants of: B2
Settings: with rad52_human RAD52, P43351
Remark: another data set of the same source

Row | Variant | effect of a mutation on the interaction
5 | F133V | with no effect

Variants of: B2
Settings: with rad52_human RAD52, P43351
Remark: another data set of the same source

Row | Variant | effect of a mutation on the interaction
6 | F133L | with no effect

Variants of: B3
Settings: with mp2k4_human MAP2K4, P45985

Row | Variant | effect of a mutation on the interaction
7 | Y87C | with no effect

Variants of: B3
Settings: with mp2k4_human MAP2K4, P45985
Remark: another data set of the same source

Row | Variant | effect of a mutation on the interaction
8 | F102C | with no effect

Variants of: B4
Settings: with nfac1_human NFATC1, O95644

Row | Variant | effect of a mutation on the interaction
9 | F102C | with no effect

Variants of: B4
Settings: with nfac1_human NFATC1, O95644
Remark: another data set of the same source

Row | Variant | effect of a mutation on the interaction
10 | Y87C | with no effect

Variants of: B4
Settings: with nfac1_human NFATC1, O95644
Remark: another data set of the same source

Row | Variant | effect of a mutation on the interaction
11 | F133L | with no effect

Variants of: B4
Settings: with nfac1_human NFATC1, O95644
Remark: another data set of the same source

Row | Variant | effect of a mutation on the interaction
12 | F133V | with no effect

Variants of: B5
Settings: with pd1l2_human PDCD1LG2, Q9BQ51

Row | Variant | effect of a mutation on the interaction
13 | F133V | with no effect

Variants of: B5
Settings: with pd1l2_human PDCD1LG2, Q9BQ51
Remark: another data set of the same source

Row | Variant | effect of a mutation on the interaction
14 | F133L | with no effect

Variants of: B5
Settings: with pd1l2_human PDCD1LG2, Q9BQ51
Remark: another data set of the same source

Row | Variant | effect of a mutation on the interaction
15 | Y87C | with no effect

Variants of: B5
Settings: with pd1l2_human PDCD1LG2, Q9BQ51
Remark: another data set of the same source

Row | Variant | effect of a mutation on the interaction
16 | F102C | with no effect

Variants of: B6
Settings: with nos3_human NOS3, P29474

Row | Variant | effect of a mutation on the interaction
17 | F102C | with no effect

Variants of: B6
Settings: with nos3_human NOS3, P29474
Remark: another data set of the same source

Row | Variant | effect of a mutation on the interaction
18 | Y87C | with no effect

Variants of: B6
Settings: with nos3_human NOS3, P29474
Remark: another data set of the same source

Row | Variant | effect of a mutation on the interaction
19 | F133L | with no effect

Variants of: B6
Settings: with nos3_human NOS3, P29474
Remark: another data set of the same source

Row | Variant | effect of a mutation on the interaction
20 | F133V | with no effect

Variants of: B7
Settings: with spb13_human SERPINB13, Q9UIV8

Row | Variant | effect of a mutation on the interaction
21 | Y87C | with no effect

Variants of: B7
Settings: with spb13_human SERPINB13, Q9UIV8
Remark: another data set of the same source

Row | Variant | effect of a mutation on the interaction
22 | F133V | with no effect

Variants of: B7
Settings: with spb13_human SERPINB13, Q9UIV8
Remark: another data set of the same source

Row | Variant | effect of a mutation on the interaction
23 | F133L | with no effect
